Assay results reported in patent publication US20160194407A1 (AstraZeneca / MedImmune, published 2016).

Columns and labels:
cynomolgus CD73 on cells = target: T1, cynomolgus CD73 on cells (cynomolgus); assay: flow cytometry on MK-1 cells, IgG1-TM
T1 construct: whole, on cells; also called native CD73 on MK-1 cells (cynomolgus)

[1] = target: T2, recombinant mature human CD73 (amino acid positions 1-526) with C-terminal 6x-histidine tag (human, UniProt P21589 27-553); assay: cell-based or functional assay
T2 sequence: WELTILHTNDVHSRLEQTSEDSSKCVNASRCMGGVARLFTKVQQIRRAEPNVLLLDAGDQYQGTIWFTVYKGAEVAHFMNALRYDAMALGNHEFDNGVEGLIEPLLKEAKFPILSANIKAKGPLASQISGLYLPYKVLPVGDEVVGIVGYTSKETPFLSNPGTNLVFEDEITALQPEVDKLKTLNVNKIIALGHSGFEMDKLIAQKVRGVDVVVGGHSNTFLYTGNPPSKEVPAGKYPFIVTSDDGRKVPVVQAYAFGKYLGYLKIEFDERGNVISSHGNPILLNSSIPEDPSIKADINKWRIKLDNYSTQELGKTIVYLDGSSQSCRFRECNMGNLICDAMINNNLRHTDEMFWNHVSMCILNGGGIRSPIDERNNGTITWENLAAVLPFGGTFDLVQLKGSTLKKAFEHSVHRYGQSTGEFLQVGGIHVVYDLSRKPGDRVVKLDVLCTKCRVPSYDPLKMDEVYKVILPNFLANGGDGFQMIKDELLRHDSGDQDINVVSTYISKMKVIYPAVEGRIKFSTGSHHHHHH

human CD73 K180A = target: T3, human CD73 K180A (human, UniProt P21589 27-553, K180A); assay: SPR ProteOn, His-tagged CD73 variant on HTG chip
T3 sequence: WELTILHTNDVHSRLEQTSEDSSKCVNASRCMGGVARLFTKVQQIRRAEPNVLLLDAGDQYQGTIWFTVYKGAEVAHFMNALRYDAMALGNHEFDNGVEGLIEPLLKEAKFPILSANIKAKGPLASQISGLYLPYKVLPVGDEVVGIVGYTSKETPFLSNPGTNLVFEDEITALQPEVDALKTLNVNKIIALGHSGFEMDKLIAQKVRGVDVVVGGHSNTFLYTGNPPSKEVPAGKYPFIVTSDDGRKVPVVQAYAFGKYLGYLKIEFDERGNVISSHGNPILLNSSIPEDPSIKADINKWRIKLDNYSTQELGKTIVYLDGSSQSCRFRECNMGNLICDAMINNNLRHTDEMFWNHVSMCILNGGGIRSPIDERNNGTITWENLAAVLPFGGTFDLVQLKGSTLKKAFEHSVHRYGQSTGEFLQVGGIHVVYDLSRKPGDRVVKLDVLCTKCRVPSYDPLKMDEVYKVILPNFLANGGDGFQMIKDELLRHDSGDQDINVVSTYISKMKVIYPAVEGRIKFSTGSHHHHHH

human CD73 V144K + K180A = target: T4, human CD73 V144K + K180A (human, UniProt P21589 27-553); assay: SPR ProteOn, His-tagged CD73 variant on HTG chip
T4 chain: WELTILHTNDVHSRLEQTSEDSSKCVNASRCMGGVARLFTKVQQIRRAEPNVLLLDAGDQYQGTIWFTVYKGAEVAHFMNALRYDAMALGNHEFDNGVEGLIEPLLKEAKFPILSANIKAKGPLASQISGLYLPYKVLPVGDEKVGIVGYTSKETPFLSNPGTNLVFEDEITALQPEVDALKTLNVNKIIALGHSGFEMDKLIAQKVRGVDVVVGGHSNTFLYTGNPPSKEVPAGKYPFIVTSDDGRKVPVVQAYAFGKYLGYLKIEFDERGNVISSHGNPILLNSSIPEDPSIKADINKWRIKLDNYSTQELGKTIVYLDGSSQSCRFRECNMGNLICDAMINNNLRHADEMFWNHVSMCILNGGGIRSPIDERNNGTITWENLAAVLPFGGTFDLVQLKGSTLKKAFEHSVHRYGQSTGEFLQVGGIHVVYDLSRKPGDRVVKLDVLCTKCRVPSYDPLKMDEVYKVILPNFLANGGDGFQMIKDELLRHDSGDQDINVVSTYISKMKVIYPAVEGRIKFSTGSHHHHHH

CD73 chimera KO_Linker = target: T5, CD73 chimera KO_Linker (human; chicken (Gallus gallus)); assay: SPR ProteOn, His-tagged CD73 variant on HTG chip
T5 construct: Human limits converted from mature numbering (+26); also called KO_292-310; linker region-swapped CD73
T5 chain: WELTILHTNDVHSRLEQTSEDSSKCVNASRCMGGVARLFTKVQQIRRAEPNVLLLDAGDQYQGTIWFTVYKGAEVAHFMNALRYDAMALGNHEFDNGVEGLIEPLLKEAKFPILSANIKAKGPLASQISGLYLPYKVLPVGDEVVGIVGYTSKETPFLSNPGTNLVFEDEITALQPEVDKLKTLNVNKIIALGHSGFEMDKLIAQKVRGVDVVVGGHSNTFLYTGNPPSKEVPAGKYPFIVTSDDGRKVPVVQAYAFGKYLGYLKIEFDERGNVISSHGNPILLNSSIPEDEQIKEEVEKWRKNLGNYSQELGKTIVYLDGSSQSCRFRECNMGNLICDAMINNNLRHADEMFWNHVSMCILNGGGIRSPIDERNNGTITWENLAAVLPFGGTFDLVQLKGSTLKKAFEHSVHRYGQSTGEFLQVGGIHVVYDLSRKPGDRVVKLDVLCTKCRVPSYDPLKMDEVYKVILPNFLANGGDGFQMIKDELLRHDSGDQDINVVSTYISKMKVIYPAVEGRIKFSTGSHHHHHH

B1: MEDI9447 (antibody, V domains shown)
VH: EVQLLESGGGLVQPGGSLRLSCAASGFTFSSYAYSWVRQAPGKGLEWVSAISGSGGRTYYADSVKGRFTISRDNSKNTLYLQMNSLRAEDTAVYYCARLGYGRVDEWGRGTLVTVSS
VL: QSVLTQPPSASGTPGQRVTISCSGSLSNIGRNPVNWYQQLPGTAPKLLIYLDNLRLSGVPDRFSGSKSGTSASLAISGLQSEDEADYYCATWDDSHPGWTFGGGTKLTVL
notes: also called clone 10.3 antibody; 73combo3
- Kd (cynomolgus CD73 on cells): 0.084 nM
- inhibition of sCD73 hydrolysis of AMP (CellTiterGlo), dose response [1]: ~1 IgG per sCD73 dimer (molar ratio)
- koff (human CD73 K180A): 0.000154 s⁻¹
- kon (human CD73 K180A): 3.45e+06 M⁻¹ s⁻¹
- koff (human CD73 V144K + K180A): 0.00425 s⁻¹
- kon (human CD73 V144K + K180A): 1.58e+06 M⁻¹ s⁻¹
- kon (CD73 chimera KO_Linker): 5.57e+06 M⁻¹ s⁻¹
